{"source": "paper PMC9605497", "about": "“Potential of Epidermal Growth Factor-like Peptide from the Sea Cucumber Stichopus horrens to Increase the Growth of Human Cells: In Silico Molecular Docking Approach” (Marine Drugs, 2022)", "binders": {"B1": {"name": "Recombinant human EGF (ligand)", "chain": "MNSDSECPLSHDGYCLHDGVCMYIEALDKYACNCVVGYIGERCQYRDLKWWELR", "modifications": "biotin (conjugated with NHS-biotin; sites not stated)", "notes": "also called rhEGF; source: bought: Thermo Scientific; biotinylated with NHS-biotin"}}, "molecular_target": "T1, human epidermal growth factor receptor (human (endogenous in melanoma cells …, UniProt P00533 25-1210))", "T1 construct": "epidermal growth factor receptor, human, as present on human melanoma cells (CRL-1872); The cells were not transfected; also called hEGFR; EGFR; source: endogenous, human melanoma cells (CRL-1872, ATCC), formalin-fixed in a 96-well plate", "experiment": "ligand binding assay on fixed cells (biotinylated ligand, NeutrAvidin-HRP, ABTS, absorbance at 405 nm); formalin-fixed human melanoma cells in a 96-well plate; biotinylated peptide at 10, 50 and 500 nM in MEM with 0.1% BSA and 200 mM HEPES, 37 °C, 1 h; washes with cold PBS and 0.3 M NaCl; triplicates", "conditions": "one partner purified"}
{"binder": "B1", "values": [{"measurement": "increase of the relative binding percentage on a tenfold higher concentration", "value": 4, "unit": "%"}]}
